Measured values taken from article PMC11975282.

B1: Apt1-Flag fusion protein, O75608 1-230 (enzyme)
chain: MCGNNMSTPLPAIVPAARKATAAVIFLHGLGDTGHGWAEAFAGIRSSHIKYICPHAPVRPVTLNMNVAMPSWFDIIGLSPDSQEDESGIKQAAENIKALIDQEVKNGIPSNRIILGGFSQGGALSLYTALTTQQKLAGVTALSCWLPLRASFPQGPIGGANRDISILQCHGDCDPLVPLMFGSLTVEKLKTLVNPANVTFKTYEGMMHSSCQQEMMDVKQFIDKLLPPID
B2: Apt2-Flag fusion protein, O95372 1-231 (enzyme)
chain: MCGNTMSVPLLTDAATVSGAERETAAVIFLHGLGDTGHSWADALSTIRLPHVKYICPHAPRIPVTLNMKMVMPSWFDLMGLSPDAPEDEAGIKKAAENIKALIEHEMKNGIPANRIVLGGFSQGGALSLYTALTCPHPLAGIVALSCWLPLHRAFPQAANGSAKDLAILQCHGELDPMVPVRFGALTAEKLRSVVTPARVQFKTYPGVMHSSCPQEMAAVKEFLEKLLPPV

Tests used:
[1] = target: Apt1-Flag fusion protein (human), O75608; experiment: native gel or EMSA; settings: remark: other sources report otherwise
[2] = target: Apt2-Flag fusion protein (human), O95372; experiment: native gel or EMSA; settings: remark: other sources report otherwise

Binder | stoichiometry N [1] | stoichiometry N [2]
B1 | 2 | 
B2 |  | 2
